Experimental findings from patent US20150210768A1, “Methods and Compounds for Preventing, Treating and Diagnosing an Inflammatory Condition” (Westfaelische Wilhelms-Universitaet Muenster, priority 2012, published 2015) are described below.

For assay [1], the target named is T1, TLR4/MD2 (Homo sapiens, UniProt O00206). The assay can be described thus: Immunoprecipitation of peptides on bead-coupled TLR4/MD2, eluates analysed by MALDI-TOF mass spectrometry. The format is binding. The arrangement: purchased R&D SYSTEMS. Conditions: bead-coupled his-tagged rhTLR4/MD2, 1 mM Calcium, 3 h at 4° C.; MALDI-TOF detection; FIG. 3B, 4, 5. As to the method: Anti-His antibody (5 μL, 0.5 mg/mL, Invivogen) and his-tagged rhTLR4/MD2 (5 μL, 1 mg/mL, carrier free, R&D SYSTEMS) were mixed and coupled to Protein A/G Agarose (50 μl, Pierce, Thermo Scientific). Trypsin digested peptides of S100A9 were added for 3 h at 4° C. in the presence of 1 mM Calcium. After washing of the beads in HBS/1 mM Ca-buffer for three times bound peptidic fragments were eluted by addition of 10 mM TRIS/2 mM EDTA-buffer and analysed by ESI-QIT- and MALDI-TOF-mass spectrometry. Identical experiments were performed to analyze the binding of the chemical synthesized peptides of S100A9 (aa63-79), S100A8 (aa55-71) and the corresponding control peptides aa63-79 AS and aa55-71 A3.

The target of assay [2] is T2, his-tagged rhTLR4/MD2 (human, UniProt O00206 24-631; Q9Y6Y9 19-160).
T2 construct: Bought recombinant human complex (carrier free, R&D SYSTEMS), his-tagged; In the pull-down it was captured by anti-His antibody on Protein A/G agarose; in the ELISA it was coated on the plate; also called TLR4/MD2 complex; TRLR4/MD2
The assay can be described thus: modified S100A9 ELISA, TLR4/MD2 coated on the plate, 2 ug/ml S100A9 protein, absorbance at 450 nm (FIG. 6C). As for the experimental part:
(§1) Binding of S100A9 proteins to TLR4/MD2 was analysed by a modified S100A9-ELISA. Briefly, TLR4/MD2 was coupled to the wells of a 96-well plate and served as capturing molecule. After blocking of the unspecific binding sites by PBS/5% skim milk powder plates were washed three times. S100A9-wt or mutant S100A9 proteins were added at a concentration of 2 μg/ml each in the presence and absence of 100 μM Calcium and incubated for two hours at room temperature. Unbound S100A9 was removed by washing the plates for three times followed by the addition of a primary anti-S100A9-antibody (1 μg/ml, polyclonal, rabbit). After a washing step the secondary anti-rabbit-IgG-antibody coupled to HRP (1 μg/ml from Cell Signalling) was added. TMB was used as substrate for HRP to quantify binding by absorbance readings at 450 nm in an ELISA reader (Anthos Mirkosysteme).

A further assay relates to human monocytes. The assay can be described thus: Stimulation of human monocytes, TNFα release quantified by ELISA. Conditions: for activation of monocytes (TNFα released into the culture medium): human monocytes stimulated for four hours, TNFα by ELISA, FIG. 1; for effect of mutation on function of the S100A9 homodimer: purified mutant S100A9 proteins, alanine exchange, binding to and activation of TLR4. It counts as cell-based. From the text: Using standard techniques known in the art, the inventors expressed the individual human proteins S100A8 and S100A9 in recombinant form, and purified them. After generating homodimers and heterodimers, they analysed the properties of the complexes. FIG. 1 illustrates the stimulation of human monocytes for four hours with the indicated concentrations of (A) recombinant human S100A8, recombinant human S100A9 or human S100A8/S100A9, and (B) recombinant human S100A8/S100A9, recombinant human S100A8/S100A9 (N69A) or S100A8/S100A9 (E78A). TNFα released into the culture medium was quantified by means of ELISA.
Monocytes were isolated from human buffy coats by Ficoll-Paque and subsequent Percoll density centrifugation (Pharmacia, Freiburg, Germany) Cells were cultured in Teflon bags (Biofolie 25; Heraeus Instruments, Hanau, Germany) using McCoy's 5a medium supplemented with 15% fetal calf serum for 1 day before stimulation. Monocytes were incubated for 4 hours with different dosis of hS100A8, hS100A9, hS100A8/S100A9 or the modified proteins as indicated in the figures and TNF-α concentrations in supernatants were determined by ELISA (OptEIA, BD Biosciences, Germany).
Release of cytokine TNF-α was measured in the culture supernatants by ELISA (OptEIA, BD Biosciences). […]

Assay [3] addresses T1, TLR4/MD2. Nature of the assay: Binding of S100A9-wt and mutant proteins to TLR4/MD2 (modified S100A9-ELISA). Particulars: 2 μg/ml protein, plate-coupled TLR4/MD2, absorbance 450 nm; FIG. 6B, 6C. As to the method:
as §1

In assay [4] the target is T2, his-tagged rhTLR4/MD2. The assay can be described thus: modified S100A9 ELISA, TLR4/MD2 coated on the plate, 2 ug/ml S100A9 protein, absorbance at 450 nm. As for the experimental part:
as §1

T2 sequence (O00206 24-631 limits assumed, chain 1 of 2): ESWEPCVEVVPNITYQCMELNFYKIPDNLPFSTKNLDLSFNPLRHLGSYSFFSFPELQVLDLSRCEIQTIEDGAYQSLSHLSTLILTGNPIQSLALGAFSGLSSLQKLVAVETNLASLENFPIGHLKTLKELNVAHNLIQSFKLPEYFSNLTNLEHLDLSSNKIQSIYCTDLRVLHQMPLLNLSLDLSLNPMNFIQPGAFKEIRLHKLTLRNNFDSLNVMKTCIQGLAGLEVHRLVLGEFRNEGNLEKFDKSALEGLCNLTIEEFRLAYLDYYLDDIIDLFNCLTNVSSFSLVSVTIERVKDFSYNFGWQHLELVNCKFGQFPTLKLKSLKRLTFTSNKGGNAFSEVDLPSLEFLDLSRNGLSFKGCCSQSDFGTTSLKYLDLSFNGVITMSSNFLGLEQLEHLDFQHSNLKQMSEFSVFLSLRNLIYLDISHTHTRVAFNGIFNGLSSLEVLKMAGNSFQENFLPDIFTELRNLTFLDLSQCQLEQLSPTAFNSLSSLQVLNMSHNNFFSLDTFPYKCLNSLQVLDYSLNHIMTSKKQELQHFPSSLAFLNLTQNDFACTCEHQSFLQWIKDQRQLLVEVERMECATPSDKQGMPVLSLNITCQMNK
T2 sequence (Q9Y6Y9 19-160 limits assumed, chain 2 of 2): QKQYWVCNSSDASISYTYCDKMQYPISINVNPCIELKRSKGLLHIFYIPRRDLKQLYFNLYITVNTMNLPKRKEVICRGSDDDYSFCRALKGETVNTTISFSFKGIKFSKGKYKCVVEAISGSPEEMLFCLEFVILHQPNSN
T1 sequence (O00206 24-631 limits assumed): as the sequence (O00206 24-631 limits assumed, chain 1 of 2) above
T1 sequence (Q9Y6Y9 17-160 partner limits assumed): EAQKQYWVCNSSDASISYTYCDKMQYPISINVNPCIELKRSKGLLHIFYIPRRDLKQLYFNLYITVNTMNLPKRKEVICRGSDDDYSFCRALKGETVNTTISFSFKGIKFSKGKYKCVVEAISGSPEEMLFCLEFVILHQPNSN

As to “55-71: synthetic peptide, positions 55-71 of human S100A8, complete C-terminal EF hand, FKELDINTDGAVNFQEF”, the “binding to TLR4/MD2” value in the assay with TLR4/MD2 [1] is reported as “able to bind to TLR4/MD2”.
Take “63-79 A5: control peptide 63-79 of S100A9 with E64A, D65A, K72A, Q73A and E77A exchanged to alanine (MAALDTNADAALSFAEF) [reference compound]”: the “binding to TLR4/MD2” value with TLR4/MD2 [1] is recorded as “no binding could be detected”.
Regarding “63-79: synthetic peptide, positions 63-79 of S100A9, complete C-terminal EF hand, MEDLDTNADKQLSFEEF”, in the assay with TLR4/MD2 [1], the “binding to TLR4/MD2” value is given as “able to bind to TLR4/MD2”.
As for “No. 15: tryptic peptide of human S100A9, amino acid positions 73-85 (QLSFEEFIMLMAR, SEQ ID NO: 3) (QLSFEEFIMLMARTTT)”, the “binding to TLR4/MD2” value with TLR4/MD2 [1] is on record as “specific interaction with TLR4/MD2”.

B1: S100A9 double mutant with alanine at both D65 and Q73 (ligand)
chain: MTCKMSQLERNIETIINTFHQYSVKLGHPDTLNQGEFKELVRKDLQNFLKKENKNEKVIEHIMEALDTNADKALSFEEFIMLMARLTWASHEKMHEGDEGPGHHHKPGLGEGTP
notes: Purified recombinant double mutant of human S100A9, homodimer
Regarding B1, in the assay with his-tagged rhTLR4/MD2 [2], the binding result is reported as “binds”.

B2: heterotetrameric complex between S100A8 and S100A9: complex of recombinant human S100A8 and S100A9, heterotetramer in presence of calcium (protein)
chain 1: MLTELEKALNSIIDVYHKYSLIKGNFHAVYRDDLKKLLETECPQYIRKKGADVWFKELDINTDGAVNFQEFLILVIKMGVAAHKKSHEESHKE
chain 2: MTCKMSQLERNIETIINTFHQYSVKLGHPDTLNQGEFKELVRKDLQNFLKKENKNEKVIEHIMEDLDTNADKQLSFEEFIMLMARLTWASHEKMHEGDEGPGHHHKPGLGEGTP
In the case of B2, the “activation of monocytes (TNFα released into the culture medium)” value (“activation of monocytes” below) in the assay with human monocytes was “does not induce an inflammatory response in monocytes”; with human monocytes (listed as heterotetrameric complex of s100A8 and S100A9), “did not show activating properties that would be comparable to the individual components”.

B3: S100A9: recombinant human protein S100A9 (Uniprot P06702), used as homodimer (protein)
chain: MTCKMSQLERNIETIINTFHQYSVKLGHPDTLNQGEFKELVRKDLQNFLKKENKNEKVIEHIMEDLDTNADKQLSFEEFIMLMARLTWASHEKMHEGDEGPGHHHKPGLGEGTP
On to B3, for which the “activation of monocytes” value was “induce a particular strong, pro-inflammatory response in monocytes” in the assay with human monocytes and “induce this response” in the assay with human monocytes (listed as homodimers of S100A9).

B4: S100A9 double mutant with alanine at both E64 and Q73 (ligand)
chain: MTCKMSQLERNIETIINTFHQYSVKLGHPDTLNQGEFKELVRKDLQNFLKKENKNEKVIEHIMADLDTNADKALSFEEFIMLMARLTWASHEKMHEGDEGPGHHHKPGLGEGTP
notes: as for B1
In the case of B4, the binding result in the assay with his-tagged rhTLR4/MD2 [2] is “binds”.

B5: S100A9Q73A (ligand)
chain: MTCKMSQLERNIETIINTFHQYSVKLGHPDTLNQGEFKELVRKDLQNFLKKENKNEKVIEHIMEDLDTNADKALSFEEFIMLMARLTWASHEKMHEGDEGPGHHHKPGLGEGTP
notes: Purified recombinant mutant of human S100A9, homodimer; also called S100A9 Q73A mutant
As for B5, the “effect of mutation on function of the S100A9 homodimer” value (shortened to “effect of mutation”) in the assay on human monocytes is recorded as “loss of function”. In addition, the “binding to the receptor compared to non-mutated protein (S100A9 wt)” value with TLR4/MD2 [3] is listed as “weaker binding”. Also, the binding result in the assay with his-tagged rhTLR4/MD2 [4] was “binds”.

B6: S100A9D65A (ligand)
chain: MTCKMSQLERNIETIINTFHQYSVKLGHPDTLNQGEFKELVRKDLQNFLKKENKNEKVIEHIMEALDTNADKQLSFEEFIMLMARLTWASHEKMHEGDEGPGHHHKPGLGEGTP
notes: Purified recombinant mutant of human S100A9, homodimer; also called S100A9 D65A mutant
In the case of B6, the “effect of mutation” value in the assay with human monocytes is listed as “loss of function”. For the same molecule, the “binding to the receptor compared to non-mutated protein (S100A9 wt)” value with TLR4/MD2 [3] is given as “weaker binding”. Also, the binding result in the assay with his-tagged rhTLR4/MD2 [4] is recorded as “binds”.

B7: S100A9R85A (ligand)
chain: MTCKMSQLERNIETIINTFHQYSVKLGHPDTLNQGEFKELVRKDLQNFLKKENKNEKVIEHIMEDLDTNADKQLSFEEFIMLMAALTWASHEKMHEGDEGPGHHHKPGLGEGTP
notes: Purified recombinant mutant of human S100A9, homodimer; also called S100A9 R85A mutant
With B7, the “effect of mutation” value with human monocytes is reported as “hardly any effect”. Further, the “binding to the receptor compared to non-mutated protein (S100A9 wt)” value in the assay with TLR4/MD2 [3] is given as “not significantly different from the wild type protein”. Also, the binding result in the assay with his-tagged rhTLR4/MD2 [4] is reported as “binds”.

B8: S100A9K72A (ligand)
chain: MTCKMSQLERNIETIINTFHQYSVKLGHPDTLNQGEFKELVRKDLQNFLKKENKNEKVIEHIMEDLDTNADAQLSFEEFIMLMARLTWASHEKMHEGDEGPGHHHKPGLGEGTP
notes: Purified recombinant mutant of human S100A9, homodimer; also called S100A9 K72A mutant
On to B8, for which, in the assay on human monocytes, the “effect of mutation” value is reported as “hardly any effect”. The “binding to the receptor compared to non-mutated protein (S100A9 wt)” value with TLR4/MD2 [3] is “not significantly different from the wild type protein”. Moreover, the binding result in the assay with his-tagged rhTLR4/MD2 [4] is “binds”.

B9: S100A9E64A (ligand)
chain: MTCKMSQLERNIETIINTFHQYSVKLGHPDTLNQGEFKELVRKDLQNFLKKENKNEKVIEHIMADLDTNADKQLSFEEFIMLMARLTWASHEKMHEGDEGPGHHHKPGLGEGTP
notes: Purified recombinant mutant of human S100A9, homodimer; also called S100A9 E64A mutant
Take B9: the “effect of mutation” value in the assay with human monocytes is given as “loss of function”. The “binding to the receptor compared to non-mutated protein (S100A9 wt)” value with TLR4/MD2 [3] is “weaker binding”. The binding result with his-tagged rhTLR4/MD2 [4] is reported as “binds”.

B10: S100A9E77A (ligand)
chain: MTCKMSQLERNIETIINTFHQYSVKLGHPDTLNQGEFKELVRKDLQNFLKKENKNEKVIEHIMEDLDTNADKQLSFAEFIMLMARLTWASHEKMHEGDEGPGHHHKPGLGEGTP
notes: Purified recombinant mutant of human S100A9, homodimer; also called S100A9 E77A mutant
For the molecule B10, the “effect of mutation” value with human monocytes is “loss of function”. Besides, the “binding to the receptor compared to non-mutated protein (S100A9 wt)” value with TLR4/MD2 [3] is given as “weaker binding”. Also, the binding result with his-tagged rhTLR4/MD2 [4] is listed as “binds”.

B11: S100A9 double mutant with alanine at both Q73 and E77 (ligand)
chain: MTCKMSQLERNIETIINTFHQYSVKLGHPDTLNQGEFKELVRKDLQNFLKKENKNEKVIEHIMEDLDTNADKALSFAEFIMLMARLTWASHEKMHEGDEGPGHHHKPGLGEGTP
notes: as for B1
Turning to B11, the binding result in the assay with his-tagged rhTLR4/MD2 [2] is “binds”.

B12: S100A9 double mutant with alanine at both E64 and D65 (ligand)
chain: MTCKMSQLERNIETIINTFHQYSVKLGHPDTLNQGEFKELVRKDLQNFLKKENKNEKVIEHIMAALDTNADKQLSFEEFIMLMARLTWASHEKMHEGDEGPGHHHKPGLGEGTP
notes: as for B1
On to B12, for which the binding result with his-tagged rhTLR4/MD2 [2] is given as “binds”.

B13: S100A8: recombinant human protein S100A8 (Uniprot P05109), used as homodimer (protein)
chain: MLTELEKALNSIIDVYHKYSLIKGNFHAVYRDDLKKLLETECPQYIRKKGADVWFKELDINTDGAVNFQEFLILVIKMGVAAHKKSHEESHKE
In the case of B13, the “activation of monocytes” value was “induce a particular strong, pro-inflammatory response in monocytes” with human monocytes and “induce this response” in the assay on human monocytes (listed as homodimers of S100A8).
